Experimental data published in publication PMC4324353 (Journal of molecular biology, 2014).

Biological target: latrunculin B bound actin (A. castellani actin monomer) (A. castellani)
Assay: fluorescence polarisation

Row | Binder | stoichiometry N
1 | SD3C (Spir SD and SC reversed around Linker 3) (domain or fragment) PREQLMESIRKGKELKQISDRQLGPPRMCEPSKKDAHAMILEFIRSRPPLKKA | 1 actin monomer per construct
2 | SC[gs]D (Spir SC and SD with Linker 3 replaced by five Gly-Ser repeats) (domain or fragment) KKDAHAMILEFIRSRPPLKKAGSGSGSGSGSPREQLMESIRKGKELKQITPPE | 1 actin monomer per construct
